The values below come from PMC3347997, “Identification of basepairs within Tn5 termini that are critical sfor H-NS binding to the transpososome and regulation of Tn5 transposition”.

Data set [1] has as its target H-NS;Tn5 transposase (Escherichia coli;Tn5) (UniProt P0ACF8+Q46731). Nature of the data set: EMSA. As to conditions: 2 nM 32P-DNA, 200 nM transposase (400 nM for ME 8/9), H-NS normally 23-849 nM added simultaneously, no divalent metal, 30 min 37 C, 5% native PAGE; buffer ….
The target in data set [2] is T1, H-NS (Escherichia coli, UniProt P0ACF8 1-137).
T1 sequence: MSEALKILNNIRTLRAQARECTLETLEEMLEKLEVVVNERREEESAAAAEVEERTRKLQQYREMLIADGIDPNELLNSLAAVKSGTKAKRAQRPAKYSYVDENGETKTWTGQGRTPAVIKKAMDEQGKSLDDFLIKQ
Nature of the data set: EMSA; no appreciable H-NS binding to OE DNA not associated with transposase; no divalent metal; 2 nM 32P-DNA, 200 nM transposase (400 nM for ME 8/9), H-NS normally 23-849 nM added simultaneously, no divalent metal, 30 min 37 C, 5% native PAGE; buffer, salt and pH not given (cited). The conditions noted are these: protein: recombinant; chain copies: 2; label: 5' 32P; as printed: 3 nt 5' overhang on strand 2; described as 53 bp duplex; two copies per transpososome. Background: Mobility shift assays separate free from complexed probe on a gel.

Chain of H-NS;Tn5 transposase (Escherichia coli;Tn5) (Q46731 whole entry, chain 2 of 2, one chain of several): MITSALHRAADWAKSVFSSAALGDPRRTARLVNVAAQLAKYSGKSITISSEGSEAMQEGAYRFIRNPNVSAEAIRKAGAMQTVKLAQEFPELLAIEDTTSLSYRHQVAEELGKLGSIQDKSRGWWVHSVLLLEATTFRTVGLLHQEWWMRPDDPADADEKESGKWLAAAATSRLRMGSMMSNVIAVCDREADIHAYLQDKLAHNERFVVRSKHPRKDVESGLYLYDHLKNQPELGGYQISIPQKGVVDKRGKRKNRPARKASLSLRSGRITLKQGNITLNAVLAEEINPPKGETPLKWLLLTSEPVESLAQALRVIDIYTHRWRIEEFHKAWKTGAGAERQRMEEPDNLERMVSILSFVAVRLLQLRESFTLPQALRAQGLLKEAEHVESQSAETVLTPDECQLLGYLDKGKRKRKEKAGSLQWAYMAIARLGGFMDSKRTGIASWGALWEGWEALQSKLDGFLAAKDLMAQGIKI

A word on the Kd: it is the equilibrium constant for the complex coming apart. The low end stands for tighter binding, the high end for weaker binding. “CCCTGCAGGTCGACTGACTCTTATACACAAGTTGAGTGAGTGAGCATGCA / ACATGCATGCTCACTCACTCAACTTGTGTATAAGAGTCAGTCGACCTGCAGGG [OE 53-bp transposon end]” displayed a dissociation constant (Kd) in data set [1] of 232 nM.

With “CCCTGCAGGTCGACTGTCTCTTATACACATCTTGAGTGAGTGAGCATGCA / ACATGCATGCTCACTCACTCAAGATGTGTATAAGAGACAGTCGACCTGCAGGG [WT ME 53-bp transposon end]”, the Kd in data set [1] turned out to be 51 nM.

B1: OE 53-bp transposon end (dsDNA)
DNA 1: CCCTGCAGGTCGACTGACTCTTATACACAAGTTGAGTGAGTGAGCATGCA
DNA 2: ACATGCATGCTCACTCACTCAACTTGTGTATAAGAGTCAGTCGACCTGCAGGG
Regarding B1, the binding result in data set [2] was “no binding”.
